Among the data in patent US5919901 are IC50 values, retold here.

The target of assay [1] is rat NPY Y5 receptor, clone Y861 (rat). As to the kind of experiment: competition with [125I]PYY, membranes of transfected COS-7 cells.
In a further assay the target is Rat Y2 (clone) (rat). Put plainly: competition with [125I]PYY on the rat Y2 clone.
In a further assay the target is Rat Y1 (clone) (rat) (UniProt P21555). Put plainly: competition with [125I]PYY on the rat Y1 clone.
Assay [2] deals with rat NPY Y5 receptor, clone Y217.24.13.6B (rat). As to the kind of experiment: competition with [125I]PYY, membranes of transfected COS-7 cells; second individual value in brackets.
Assay [3] shares this target. As to the kind of experiment: competition with [125I]PYY, membranes of transfected COS-7 cells; first individual value in brackets.
The target of assay [4] is rat NPY Y5 receptor, clone Y555 (rat). As to the kind of experiment: competition with [125I]PYY, membranes of transfected COS-7 cells; second individual value in brackets.
For assay [5] the target is unchanged. Put plainly: competition with [125I]PYY, membranes of transfected COS-7 cells; first individual value in brackets.
For assay [6] the target is unchanged. As to the kind of experiment: competition with [125I]PYY, membranes of transfected COS-7 cells; average of two experiments.
For a further assay, the target named is Rat Y4/PP1 (clone) (rat) (UniProt Q63447). Put plainly: competition with rat [125I]PP on the rat Y4/PP1 clone.

As a reminder, the IC50 is the point on the concentration scale where inhibition reaches its midpoint.

Where only a bound is given, the exact number is not on record here.

Sequence of Rat Y4/PP1 (clone) (rat) (Q63447 whole entry): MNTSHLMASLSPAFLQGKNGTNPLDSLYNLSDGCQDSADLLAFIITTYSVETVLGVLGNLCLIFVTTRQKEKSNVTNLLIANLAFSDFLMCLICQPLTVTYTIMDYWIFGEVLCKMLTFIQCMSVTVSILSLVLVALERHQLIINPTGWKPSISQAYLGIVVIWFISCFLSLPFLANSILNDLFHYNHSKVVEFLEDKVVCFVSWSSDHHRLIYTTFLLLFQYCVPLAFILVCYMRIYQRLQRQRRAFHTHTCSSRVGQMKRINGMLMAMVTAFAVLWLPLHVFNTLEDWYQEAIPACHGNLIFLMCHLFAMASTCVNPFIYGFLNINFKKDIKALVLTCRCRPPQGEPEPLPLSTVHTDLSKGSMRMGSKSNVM

Regarding (1-24)NPY (peptide), the IC50 (in assay [1]; with Rat Y2 (clone) (rat); in the assay with Rat Y1 (clone) (rat)) was above 1000 nM each time.
In the case of “h(Leu^31 Pro^34)PYY (from UniProt P10082) (peptide)”, the IC50 in [2] was determined as 0.69 nM; in assay [1] it was 2 nM; in assay [3], 0.65 nM.
Regarding “p(13-36)NPY (from UniProt P01304) (peptide)”, the IC50 with Rat Y2 (clone) (rat) was 1.3 nM.
For the substance “p(Leu^31 Pro^34)NPY (from UniProt P01304) (peptide)”, the IC50 in the assay with Rat Y2 (clone) (rat) came out at 150 nM; with Rat Y1 (clone) (rat), 0.15 nM.
In the assay with Rat Y2 (clone) (rat), “r/h(2-36)NPY (from UniProt P01303) (peptide)” displayed an IC50 of 0.5 nM.
Still for that read-out and setting: the same measure for “r/h(10-36)NPY (from UniProt P01303) (peptide)”: 0.42 nM.
For the substance “r/h(32D-Trp)NPY (from UniProt P01303) (peptide)”, the IC50 in assay [1] is 7 nM; with Rat Y1 (clone) (rat), above 1000 nM.
Take “r/h(LP)NPY (from UniProt P01303) (peptide)”: the IC50 came to 0.92 nM in assay [4], 1 nM in assay [5] and 0.96 nM in assay [6].
Turning to “r/h(Leu^31 Pro^34)(3-36)NPY (from UniProt P01303) (peptide)”, the IC50 with Rat Y2 (clone) (rat) worked out at 154 nM; with Rat Y1 (clone) (rat), 44 nM.
In the assay with Rat Y2 (clone) (rat), r/hNPY (from UniProt P01303) (peptide) showed an IC50 of 0.24 nM.
Take “r/hNPY, P01303 (peptide; other documents disagree on this pair)”: the IC50 with Rat Y4/PP1 (clone) (rat) is above 1000 nM.
As to rPP (from UniProt P06303) (peptide), the IC50 with Rat Y2 (clone) (rat) is above 1000 nM.
The same measure, in the same setting: the result for rPYY (from UniProt P10631) (peptide) reads 0.079 nM.
